Source: patent US20200216522A1 (DENALI THERAPEUTICS, published 2020)

Key:
Experiment in all cases: peptide array
[1] = target: T1, Peptide_079 (human)
T1 peptide: EIVYKSPVVSGDTSP
In short: (§1)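 Epitope mapping used slides carrying triplicate 15-residue peptides, offset by 5 aa, tiling full-length human Tau 2N4R. Chimeric IgG at 5 μg/mL or murine IgG at 30 μg/mL in 3% BSA-TBST (pH 7.5) bound for 2 h at RT; Alexa Fluor secondaries (568 or 647 nm channel) applied 1 h, then imaged.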

[2] = target: T2, Peptide_008 (human)
T2 peptide: EGDTDAGLKESPLQT
In short: as §1

[3] = target: T3, Peptide_078 (human)
T3 peptide: TDHGAEIVYKSPVVS
In short: as §1

[4] = target: T4, Peptide_077 (human)
T4 peptide: NAKAKTDHGAEIVYK
In short: as §1

[5] = target: T5, Peptide_050 (human)
T5 peptide: APVPMPDLKNVKSKI
In short: as §1

[6] = target: T6, Peptide_068 (human)
T6 peptide: QVEVKSEKLDFKDRV
In short: as §1

[7] = target: T7, Peptide_057 (human)
T7 peptide: KLDLSNVQSKCGSKD
In short: as §1

[8] = target: T8, Peptide_005 (human)
T8 peptide: GDRKDQGGYTMHQDQ
In short: as §1

[9] = target: T9, Peptide_029 (human)
T9 peptide: KAKGADGKTKIATPR
In short: as §1

[10] = target: T10, Peptide_074 (human)
T10 peptide: GGNKKIETHKLTFRE
In short: as §1

[11] = target: T11, Peptide_067 (human)
T11 peptide: KPGGGQVEVKSEKLD
In short: as §1

[12] = target: T12, Peptide_059 (human)
T12 peptide: CGSKDNIKHVPGGGS
In short: as §1

[13] = target: T13, Peptide_019 (human)
T13 peptide: AQPHTEIPEGTTAEE
In short: as §1

[14] = target: T14, Peptide_010 (human)
T14 peptide: SPLQTPTEDGSEEPG
In short: as §1

[15] = target: T15, Peptide_016 (human)
T15 peptide: TAPLVDEGAPGKQAA
In short: as §1

[16] = target: T16, Peptide_045 (human)
T16 peptide: REPKKVAVVRTPPKS
In short: as §1

[17] = target: T17, Peptide_015 (human)
T17 peptide: TAEDVTAPLVDEGAP
In short: as §1

[18] = target: T18, Peptide_056 (human)
T18 peptide: QIINKKLDLSNVQSK
In short: as §1

[19] = target: T19, Peptide_064 (human)
T19 peptide: SKVTSKCGSLGNIHH
In short: as §1

[20] = target: T20, Peptide_023 (human)
T20 peptide: TPSLEDEAAGHVTQA
In short: as §1

[21] = target: T21, Peptide_084 (human)
T21 peptide: SIDMVDSPQLATLAD
In short: as §1

[22] = target: T22, Peptide_073 (human)
T22 peptide: THVPGGGNKKIETHK
In short: as §1

[23] = target: T23, Peptide_062 (human)
T23 peptide: VQIVYKPVDLSKVTS
In short: as §1

[24] = target: T24, Peptide_053 (human)
T24 peptide: GSTENLKHQPGGGKV
In short: as §1

[25] = target: T25, Peptide_021 (human)
T25 peptide: TTAEEAGIGDTPSLE
In short: as §1

[26] = target: T26, Peptide_047 (human)
T26 peptide: TPPKSPSSAKSRLQT
In short: as §1

[27] = target: T27, Peptide_004 (human)
T27 peptide: GTYGLGDRKDQGGYT
In short: as §1

[28] = target: T28, Peptide_072 (human)
T28 peptide: SLDNITHVPGGGNKK
In short: as §1

[29] = target: T29, Peptide_085 (human)
T29 peptide: DSPQLATLADEVSAS
In short: as §1

[30] = target: T30, Peptide_070 (human)
T30 peptide: FKDRVQSKIGSLDNI
In short: as §1

[31] = target: T31, Peptide_049 (human)
T31 peptide: SRLQTAPVPMPDLKN
In short: as §1

[32] = target: T32, Peptide_028 (human)
T32 peptide: GSDDKKAKGADGKTK
In short: as §1

[33] = target: T33, Peptide_018 (human)
T33 peptide: GKQAAAQPHTEIPEG
In short: as §1

[34] = target: T34, Peptide_039 (human)
T34 peptide: SGDRSGYSSPGSPGT
In short: as §1

[35] = target: T35, Peptide_007 (human)
T35 peptide: MHQDQEGDTDAGLKE
In short: as §1

B1: chimeric IgG clone 1D10 (antibody, V domains shown)
VH: EVQLQQSGAELVRPGASVKLSCTASGFNIKDSLMHWMKQRPEQGLEWIGWIDPEDGETKYAPKFQDKATLTADTSSNAAYLQLSSLTSEDTAIYYCVRGDWDGGYWGQGTTLTVSS
VL: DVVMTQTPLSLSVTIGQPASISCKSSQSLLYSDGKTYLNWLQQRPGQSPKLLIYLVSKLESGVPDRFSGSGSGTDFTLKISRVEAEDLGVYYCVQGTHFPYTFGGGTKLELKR
notes: mouse-human chimeric IgG from HEK293
- binding result [1]: no binding (tested: 5 ug/mL)
- binding result [2]: no binding (tested: 5 ug/mL)
- binding result [3]: no binding (tested: 5 ug/mL)
- binding result [4]: no binding (tested: 5 ug/mL)
- binding result [5]: no binding (tested: 5 ug/mL)
- binding result [6]: no binding (tested: 5 ug/mL)
- binding result [7]: no binding (tested: 5 ug/mL)
- binding result [8]: no binding (tested: 5 ug/mL)
- binding result [9]: no binding (tested: 5 ug/mL)
- binding result [10]: no binding (tested: 5 ug/mL)
- binding result [11]: no binding (tested: 5 ug/mL)
- binding result [12]: no binding (tested: 5 ug/mL)
- binding result [13]: no binding (tested: 5 ug/mL)
- binding result [14]: no binding (tested: 5 ug/mL)
- binding result [15]: no binding (tested: 5 ug/mL)
- binding result [16]: no binding (tested: 5 ug/mL)
- binding result [17]: no binding (tested: 5 ug/mL)
- binding result [18]: no binding (tested: 5 ug/mL)
- binding result [19]: no binding (tested: 5 ug/mL)
- binding result [20]: no binding (tested: 5 ug/mL)
- binding result [21]: no binding (tested: 5 ug/mL)
- binding result [22]: no binding (tested: 5 ug/mL)
- binding result [23]: no binding (tested: 5 ug/mL)
- binding result [24]: no binding (tested: 5 ug/mL)
- binding result [25]: no binding (tested: 5 ug/mL)
- binding result [26]: no binding (tested: 5 ug/mL)
- binding result [27]: no binding (tested: 5 ug/mL)
- binding result [28]: no binding (tested: 5 ug/mL)
- binding result [29]: no binding (tested: 5 ug/mL)
- binding result [30]: binds
- binding result [31]: no binding (tested: 5 ug/mL)
- binding result [32]: no binding (tested: 5 ug/mL)
- binding result [33]: no binding (tested: 5 ug/mL)
- binding result [34]: no binding (tested: 5 ug/mL)
- binding result [35]: no binding (tested: 5 ug/mL)

B2: murine anti-Tau hybridoma antibody 17G2.A1 (antibody, V domains shown)
VH: QVQLQQPGAELVGPGSSVKLSCKASGYTFINYWIDWMKQSPGQGLEWIGNIYPSDSESHYNQKFTDKATLTVDISSSTAYLQLSSLTSEDSAVYYCALYSKGYWGQGTSVTVSS
VL: DVLMTQTPLSLPVTLGDQASISCRSSQNIVHTNGNTYLEWYLQKPGQSPKLLIYKLSSRFSGVPDRFSGSGSGTDFTLKISRVEAEDLGVYYCFQGSHLPFTFGGGTKLEIKR
notes: mouse IgG from hybridoma; also called anti-Tau 17G2.A1
- binding result [1]: no binding (tested: 30 ug/mL)
- binding result [2]: no binding (tested: 30 ug/mL)
- binding result [3]: no binding (tested: 30 ug/mL)
- binding result [4]: no binding (tested: 30 ug/mL)
- binding result [5]: no binding (tested: 30 ug/mL)
- binding result [6]: no binding (tested: 30 ug/mL)
- binding result [7]: no binding (tested: 30 ug/mL)
- binding result [8]: no binding (tested: 30 ug/mL)
- binding result [9]: no binding (tested: 30 ug/mL)
- binding result [10]: no binding (tested: 30 ug/mL)
- binding result [11]: no binding (tested: 30 ug/mL)
- binding result [12]: no binding (tested: 30 ug/mL)
- binding result [13]: no binding (tested: 30 ug/mL)
- binding result [14]: no binding (tested: 30 ug/mL)
- binding result [15]: no binding (tested: 30 ug/mL)
- binding result [16]: no binding (tested: 30 ug/mL)
- binding result [17]: no binding (tested: 30 ug/mL)
- binding result [18]: no binding (tested: 30 ug/mL)
- binding result [19]: no binding (tested: 30 ug/mL)
- binding result [20]: no binding (tested: 30 ug/mL)
- binding result [21]: no binding (tested: 30 ug/mL)
- binding result [22]: no binding (tested: 30 ug/mL)
- binding result [23]: no binding (tested: 30 ug/mL)
- binding result [24]: no binding (tested: 30 ug/mL)
- binding result [25]: no binding (tested: 30 ug/mL)
- binding result [26]: no binding (tested: 30 ug/mL)
- binding result [27]: no binding (tested: 30 ug/mL)
- binding result [28]: no binding (tested: 30 ug/mL)
- binding result [29]: no binding (tested: 30 ug/mL)
- binding result [30]: no binding (tested: 30 ug/mL)
- binding result [31]: no binding (tested: 30 ug/mL)
- binding result [32]: no binding (tested: 30 ug/mL)
- binding result [33]: no binding (tested: 30 ug/mL)
- binding result [34]: binds
- binding result [35]: no binding (tested: 30 ug/mL)
